Target: T1, LRRC33 (Leucine-rich repeat-containing protein 33) (human, UniProt Q86YC3 19-692)
T1 construct: Endogenous LRRC33 on the surface of PMA-stimulated THP1 cells; On cells it may be complexed with proTGFb1; also called NRROS; Negative Regulator of Reactive Oxygen Species
T1 sequence: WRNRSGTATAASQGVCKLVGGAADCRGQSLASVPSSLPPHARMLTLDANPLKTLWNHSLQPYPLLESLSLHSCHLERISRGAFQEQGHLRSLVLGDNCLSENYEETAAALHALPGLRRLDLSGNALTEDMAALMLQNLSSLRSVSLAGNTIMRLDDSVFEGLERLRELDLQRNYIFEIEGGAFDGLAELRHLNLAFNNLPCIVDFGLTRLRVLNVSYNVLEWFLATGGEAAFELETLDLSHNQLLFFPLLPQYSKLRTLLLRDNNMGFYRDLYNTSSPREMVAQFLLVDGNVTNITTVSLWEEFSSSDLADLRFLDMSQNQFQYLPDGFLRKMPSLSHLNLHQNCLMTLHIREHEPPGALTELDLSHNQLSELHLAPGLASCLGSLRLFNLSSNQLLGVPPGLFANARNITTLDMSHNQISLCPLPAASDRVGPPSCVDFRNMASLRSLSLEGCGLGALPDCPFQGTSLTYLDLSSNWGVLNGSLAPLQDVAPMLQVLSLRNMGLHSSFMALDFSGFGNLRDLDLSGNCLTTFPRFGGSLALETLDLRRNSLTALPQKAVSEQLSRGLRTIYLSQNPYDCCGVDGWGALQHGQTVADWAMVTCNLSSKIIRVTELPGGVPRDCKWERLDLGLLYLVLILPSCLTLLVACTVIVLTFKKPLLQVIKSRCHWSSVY
Assay: staining of PMA-stimulated THP1 cells with 10 ug/mL antibody, detected with fluorophore conjugated secondary antibody (internalization assay)
Method: FIG. 15 provides results from an internalization study. THP1 cells were stimulated overnight with PMA to induce LRRC33 surface expression and adherence to tissue culture plastic. The next day, cells were stained with antibodies at 10 ug/mL for 1 hour. A subset of cells were washed and moved to cell culture media and to 37° C. for 1 hour or two hours, while another subset (time 0) were immediately fixed. Another subset of cells were washed and kept at 4° C. Internalization was detected by using fluorophore conjugated secondary antibodies against the primary antibody isotypes. Gemtuzumab and SRL1, a human specific mouse antibody against LRRC33, internalize similarly.

B1: SRL1 (antibody, V domains shown)
VH: EVQLQQSGTVLARPGASVKMSCKASGYTFTYYWMQWVKQRPGQGLEWIGAIYPGNSDTTYNQKFKGKAKLTAVTSTSTAYMELSSLTNEDSAVYYCTNTNWEAMDYWGQGTSVTVSS
VL: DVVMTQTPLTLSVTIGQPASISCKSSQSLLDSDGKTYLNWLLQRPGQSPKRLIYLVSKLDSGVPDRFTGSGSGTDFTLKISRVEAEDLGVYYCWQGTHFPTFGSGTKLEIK
notes: also called LRRC33 antibody SRL1
binding result: binds
